Experimental data taken from US6861508B2, “Transcriptional intermediary factor-2” (Institut National de la Sante et de la Recherche Medicale, priority 1996, dated 2005).

Legend:
GAL4 reporter = test: GAL4 DBD-TIF2 fusion CAT reporter transactivation assay; type: cell-based; conditions: Cos-1 and/or HeLa cells
In short: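 Transiently transfected HeLa and Cos-1 cells received plasmids (3 μg; 1-10 μg in titration) expressing TIF2 regions or mutants fused to GAL4 DBD(1-147), plus 1 μg (17m)5-G-CAT reporter. CAT activity measured by TLC phosphoimaging or CAT ELISA, normalized to cotransfected β-galactosidase, expressed as fold over GAL4 DBD alone; mean of ≥3 experiments.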

ER, RARα and RXRα LBDs = test: GST pull-down of TIF2 polypeptides with NR LBDs; type: binding; conditions: in vitro, with or without 10^−6 M ligand
Experimental: (b) Mapping of the nuclear receptor-interacting domain of TIF2.
(c-d) Interaction of TIF2 NID mutants with NRs in vitro. […] For quantification of point mutant interactions, see below.
(e-f) Effect of TIF2 NID point mutations on stimulation of NR AF-2 activity. Cos-1 cells were cotransfected with 1 μg of the (17m)5-TATA-CAT reporter, 0.2 μg of GAL-hERα(EF) or GAL-mRXRα(DE), and 2.5 μg of the TIF2.1 wildtype or mutated fragments, as indicated. […] Each bar represents the mean value obtained from at least three (interaction) or at least four (transactivation) experiments, respectively; standard deviations are indicated. Note that the absolute values for TIF2.1 wildtype activity varied by ±16% when cotransfected with GAL-hERα(EF) and by ±34% when cotransfected with GAL-mRXRα(DE). In the in-vitro-interaction assays, the affinity of the TIF2.1 wildtype standard varied by less than ±25%. Expression levels of TIF2 mutants in the cells were verified by Western blot (not shown) with mouse monoclonal antibody 3Ti3F1, which is directed against an epitope outside the mutated area.
To further delineate the TIF2 NR interaction domain (NID), we studied the interaction between a series of TIF2 deletion mutants and the ER or RARα LBDs, using GST-fusion protein-based in vitro assays. In both cases, an NWD was mapped to the central region of TIF2 (amino acids 624-869 in mutant TIF2.5; see FIGS. 7a and b). No additional NWD could be identified in the N- or C-termini of TIF2 (FIGS. 7a and b; mutants TIF2.0, TIF2.2 and TIF2.7). Note that, in contrast, SRC-1, a paralogue of TIF2, apparently harbours two distinct non-contiguous NIDs located in the central and C-terminal regions (Onate, S. A. et al., Science 270:1354-1357 (1995), Yao, T. P. et al., Proc. Natl. Acad. Sci. USA 93:10626-10631 (1996); Zhu, Y. et al., Gene Epression 6:185-195 (1996)).

[1] = tested on: AF-2 activity of ER, RXRα and RARα; test: dominant negative effect on NR AF-2 activity, (17m)5-TATA-CAT reporter; type: cell-based; conditions: HeLa and Cos-1 cells
Text: FIG. 12(a-d). The isolated nuclear receptor-interacting domain (ND) of TIF2 acts dominant-negatively on the transcriptional activation by the ER, RXR and RAR LBDs. The mean value of induction obtained from the quantitation of at least three experiments (relative to the respective receptor LBD activity in absence of recombinant TIF2) is indicated below each panel. Expression levels of TIF2, TIF2.1 and TIF2.5 were routinely verified by Western blot with mouse monoclonal antibody 3Ti3C11 directed against a region of TIF2.5 (not shown).
(b-d) Full length TIF2 and the coactivator fragment TIF2.1 enhance, whereas the nuclear receptor interacting domain TJF2.5 blocks the activity of the ER, RXR and RAR LBDs. Cos-1 and HeLa cells were cotransfected with 1 μg of the (17m)5-TATA-CAT reporter and 0.2 μg of the expression vector encoding the respective GAL DBD-fusion of hERα(EF), mRXRα(DE) or mRARα(DEF).
Assuming that TIF2 or coactivators recognizing the TIF2 interacting surface on NR LBDs, generally mediate the AF-2 function of NRs, the NID containing TIF2.5 should exert its dominant negative activity not only on ER, but also on other NRs, independently of the cellular context. We therefore analyzed the effect of TIF2.5 on the AF-2 activity of ER, RXRα and RARα in HeLa and in Cos-1 cells (FIGS. 12b-d).

[2] = tested on: CBP (residues 1872 to 2165); test: GST-CBP pull-down of TIF2 polypeptides; type: binding
Experimental: (d) Mapping of the CBP-interacting domain of TIF2. GST puld own experiments were performed with ^35S-labeled in-vitro-translated TIF2 polypeptides and bacterially produced GST and GST-CBP (expressing CBP residues 1872 to 2165).
(c) Interaction of TIF2 AF-1 mutants with CBP in vitro. GST pull-down experiments were performed with ^35S-labeled in-vitro-translated GAL-TIF2 fusion proteins and bacterially produced GST and GST-CBP.
(c) Interaction of TIF2.13 wildtype and TIF2.13 mutants with CBP in vitro. GST pull-down experiments were performed with ^35S-labeled in-vitro-translated VP16-TIF2.13 polypeptides and bacterially produced GST and GST-CBP.
(§1) Furthermore, it was reported that SRC-1, which belongs to the same gene family as TIF2, interacts with CBP and p300 (Kamei, Y. et al., Cell 85:403-414 (1996); Yao, T. P. et al., Proc. Natl. Acad. Sci. USA 93:10626-10631 (1996); Hanstein, B., et al., Proc. Natl. Acad Sci USA 93:11540-11545 (1996)). Using GST-fusion protein-based interaction and animal cell-based two hybrid assays, we therefore analyzed whether TIF2 could also interact with CBP. […] A GST-CBP fusion protein was expressed in E. coli and used for puU-down assays with in vitro translated TIF2 polypeptides (FIG. 7d).

GAL-CBP = test: two hybrid analysis of CBP-TIF2 interaction in HeLa cells; type: cell-based
Experimental: (e) Two hybrid analysis of the CBP-TIF2 interaction in mammalian cells in vivo. HeLa cells were transfected with 0.2 μg of the GAL4 or GALA-CBP (expressing CBP residues 1872 to 2165) expression vectors together with 0.2 μg of the VP16 or VPI6-TF2 expression vectors in the presence of 2 μg of (17m)5-TATA-CAT reporter plasmid. Fold induction relative to the GAL-CBP activity is indicated. The mean of three experiments is shown; in each case, values varied by less than ±20%.
HeLa cells were transfected with 0.2 μg of GAL4 or GAL-CBP expression vectors together with 0.2 μg of VP16 or VP16-TIF2.13 expression vectors in the presence of 1 μg of (17m)5-TATA-CAT reporter plasmid. Data are represented as fold induction of the activity seen with GAL-CBP alone. The mean and standard, deviation obtained from ten experiments are shown. The expression levels were confirmed by Western blotting with antibodies directed against GAL4 DBD and VP16 AAD (data not shown).
as §1

histone = histone acetylase activity of purified TIF2 fragments; type: biochemical; conditions: bacterially-expressed purified fragment
Text: TIF2 can apparently fulfill at least two mediator functions, (i) as a “bridging factor” between the AF-2 function of nuclear receptors and CBP via its AD1 activation domain and (ii) as a transcriptional mediator through as yet unknown CBP binding-independent route(s) via its AD2 function.

ER (HEGO) = test: yeast PL3 (ERE)3-URA3 reporter, OMP decase activity, ER; type: cell-based, human; conditions: with estradiol
Text: (§2) FIG. 11. The TIF2.1 coactivator fragment efficiently stimulates the ligand-dependent AF-2 of ER, RAR and RXR in yeast. No stimulatory effect of TIF2.1 on the isolated AF-1 of ER (HE15) is observable. Plasmids expressing different regions of hERα (white), hRARα (grey) and mRXRα (black) fused to the ER DBD (hERα(C)) were introduced into the yeast reporter strain PL3 (α) together with TIF2.1 as indicated. […] OMP decase activities determined on each cell-free extract are expressed in nmoyrnin/mg protein; the mean and standard deviation of at least four experiments are shown.
(§3) We therefore investigated whether TIF2 could enhance transcriptional activation by various NR constructs expressed in S. cerevisiae. Both, NRs and TIF2.1 were expressed from multicopy plasmids in the yeast strain PL3 (a), which contains a URA3 reporter gene under the control of three estrogen response elements ((ERE)3-URA3; Pierrat, B. et al., Gene 119:237-245 (1992)).
(§4) In yeast, the hERa constructs were expressed from the following YEp90-based plasmids: HEGO (hERα, YEp90-HEGO, amino acids 1-595), HE15 (YEp90-HE15, amino acids 1-282), and HEG19 (YEp90-HEG19, amino acids 179-595) (all Pierrat, B. et al., Gene 119:237-245 (1992)), HE179-338 (YEp90-HE179-338; Pierrat, B. et al., Gene 143:193-200 (1994)). […]

RXRα AF-2 = test: yeast PL3 (ERE)3-URA3 reporter, OMP decase activity, RXRα; type: cell-based, mouse; conditions: with ligand
Text: as §2, §3, §4

RARα LBD = test: yeast PL3 (ERE)3-URA3 reporter, OMP decase activity, RARα; type: cell-based, human; conditions: absence of ligand
Text: as §2, §3, §4

B1: TIF2.5: TIF2 fragment amino acids 624-869, isolated NID (protein)
chain: ERADGQSRLHDSKGQTKLLQLLTTKSDQMEPSPLASSLSDTNKDSTGSLPGSGSTHGTSLKEKHKILHRLLQDSSSPVDLAKLTAEATGKDLSQESSSTAPGSEVTIKQEPVSPKKKENALLRYLLDKDDTKDIGLPEITPKLERLDSKTDPASNTKLIAMKTEKEEMSFEPGDQPGSELDNLEEILDDLQNSQLPQLFPDTRPGAPAGSVDKQAIINDLMQLTAENSPVTPVGAQKTALRISQST
transcriptional activation of GAL4 reporter by GAL4 DBD fusion (GAL4 reporter): cannot activate transcription
binding to NRs (ER, RARα LBDs) (ER, RARα and RXRα LBDs): can bind to NRs
effect on NR AF-2 activity [1]: dose-dependent inhibition of the NR AF-2 activity

B2: TIF2.1: cytoplasmic TIF2 coactivator fragment, amino acids 624 to 1287 of SEQ ID NO:2 (protein)
chain: ERADGQSRLHDSKGQTKLLQLLTTKSDQMEPSPLASSLSDTNKDSTGSLPGSGSTHGTSLKEKHKILHRLLQDSSSPVDLAKLTAEATGKDLSQESSSTAPGSEVTIKQEPVSPKKKENALLRYLLDKDDTKDIGLPEITPKLERLDSKTDPASNTKLIAMKTEKEEMSFEPGDQPGSELDNLEEILDDLQNSQLPQLFPDTRPGAPAGSVDKQAIINDLMQLTAENSPVTPVGAQKTALRISQSTFNNPRPGQLGRLLPNQNLPLDITLQSPTGAGPFPPIRNSSPYSVIPQPGMMGNQGMIGNQGNLGNSSTGMIGNSASRPTMPSGEWAPQSSAVRVTCAATTSAMNRPVQGGMIRNPAASIPMRPSSQPGQRQTLQSQVMNIGPSELEMNMGGPQYSQQQAPPNQTAPWPESILPIDQASFASQNRQPFGSSPDDLLCPHPAAESPSDEGALLDQLYLALRNFDGLEEIDRALGIPELVSQSQAVDPEQFSSQDSNIMLEQKAPVFPQQYASQAQMAQGSYSPMQDPNFHTMGQRPSYATLRMQPRPGLRPTGLVQNQPNQLRLQLQHRLQAQQNRQPLMNQISNVSNVNLTLRPGVPTQAPINAQMLAQRQREILNQHLRQRQMHQQQQVQQRTLMMRGQGLNMTPSMVAPSGMPATMS
transcriptional activation of GAL4 reporter by GAL4 DBD fusion (GAL4 reporter): strongly transactivated
binding to GST-CBP in vitro [2]: also interacted with GST-CBP
interaction with GAL-CBP, two hybrid (GAL-CBP): scored positive
histone acetylase activity (histone): none
effect on transcriptional activity of ER (ER (HEGO)): further enhanced
effect on AF-2 activity of liganded RXRα (RXRα AF-2): stimulated
effect on transactivation by RARα LBD (RARα LBD): very efficiently enhanced
